B1: 3x Flag Matrin 3 wild-type (human) [human] / Aly (AlyRef) of NSC-34 cells [mouse (endogenous in NSC-34)] (parent complex)
chain 1: MSKSFQQSSLSRDSQGHGRDLSAAGIGLLAAATQSLSMPASLGRMNQGTARLASLMNLGMSSSLNQQGAHSALSSASTSSHNLQSIFNIGSRGPLPLSSQHRGDADQASNILASFGLSARDLDELSRYPEDKITPENLPQILLQLKRRRTEEGPTLSYGRDGRSATREPPYRVPRDDWEEKRHFRRDSFDDRGPSLNPVLDYDHGSRSQESGYYDRMDYEDDRLRDGERCRDDSFFGETSHNYHKFDSEYERMGRGPGPLQERSLFEKKRGAPPSSNIEDFHGLLPKGYPHLCSICDLPVHSNKEWSQHINGASHSRRCQLLLEIYPEWNPDNDTGHTMGDPFMLQQSTNPAPGILGPPPPSFHLGGPAVGPRGNLGAGNGNLQGPRHMQKGRVETSRVVHIMDFQRGKNLRYQLLQLVEPFGVISNHLILNKINEAFIEMATTEDAQAAVDYYTTTPALVFGKPVRVHLSQKYKRIKKPEGKPDQKFDQKQELGRVIHLSNLPHSGYSDSAVLKLAEPYGKIKNYILMRMKSQAFIEMETREDAMAMVDHCLKKALWFQGRCVKVDLSEKYKKLVLRIPNRGIDLLKKDKSRKRSYSPDGKESPSDKKSKTDGSQKTESSTEGKEQEEKSGEDGEKDTKDDQTEQEPNMLLESEDELLVDEEEAAALLESGSSVGDETDLANLGDVASDGKKEPSDKAVKKDGSASAAAKKKLKKVDKIEELDQENEAALENGIKNEENTEPGAESSENADDPNKDTSENADGQSDENKDDYTIPDEYRIGPYQPNVPVGIDYVIPKTGFYCKLCSLFYTNEEVAKNTHCSSLPHYQKLKKFLNKLAEERRQKKET
chain 2: not shown

Variants of: B1
Assay: co-immunoprecipitation (Aly IP) followed by western blot, quantified; NSC-34 stable cell lines; five replicates; WT vs 85: p = 0.6561; read off a plot

Row | Variant | ratio to parent
1 | chain 1 S85C | ~1.4

Variants of: B1
Assay: co-immunoprecipitation (Aly IP) followed by western blot, quantified; NSC-34 stable cell lines; five replicates; WT vs 115: p = 0.9670; read off a plot

Row | Variant | ratio to parent
2 | chain 1 F115C | ~1.2

Variants of: B1
Assay: co-immunoprecipitation (Aly IP) followed by western blot, quantified; NSC-34 stable cell lines; five replicates; WT vs 154 p = 0.2250; read off a plot

Row | Variant | ratio to parent
3 | chain 1 P154S | ~1.6

Variants of: B1
Assay: co-immunoprecipitation (Aly IP) followed by western blot, quantified; NSC-34 stable cell lines; five replicates; WT vs 622 p = 0.9611; read off a plot

Row | Variant | ratio to parent
4 | chain 1 T622A | ~1.2
